The results in this text go back to IntAct's records for PubMed 20835227.

To fix the notation:
B1: DNA replication regulator SLD3 (Saccharomyces cerevisiae), P53135 (parent)
chain: METWEVIASVKEATKGLDLSLDHPLIIKSEDVPSNILQLLQQKNRRQLKHICMKSRKEYFLLEEYGPGFWVKWPYNYFNGYSLPERRTEVVTTVERERAKRETLKTWDELKFKELLHLWSEEPKGSCKLEKDKDLKLDMNPPDMKGESKINDYYSDPKEYIESKYYDALFSIHTPLAYFVKSNLVRLKNTCRTKYGSDSYKIAYQAMLQKFLLSIVQFKDRHDNRLLLEPFSSPIADEKRKNCLTKFVIQDENKNSSTIADLCVVLKSREIKLQILLLLEIIGLNDLDWNFRDFEKKYKLKLKKRSLNLTKKGLVRRRSKKKTSEKDKGIERITTSLDYCEQLDLYLDRACILDILLSSETPNPDAIEASNGTIQEHKKNILDKSKEASLVGFINYVLIPYFNKKVPHAVEFIIQKLKGPSMRPKRALKKVNDSTNVSSPNTVETYNRLSTSQRASRSSIINSVPSSPALRRVDANLFSRKSIASPTPELLNSRTNSNLNEFLESETRSLKRPSQLGRTKSDLTMNHLQKRQFSVSDLSTTRVPNSSTITLKTPFSHSTINAYKTMNNSFRRVGKRKDINETIRLHERVDSEENVQVQATPAVKKRTVTPNKKAQLQSIIESPLNFKDDDTHEGRKNTSNITSTPTNKPPENSSKRRVRRRLFAPEST
partner: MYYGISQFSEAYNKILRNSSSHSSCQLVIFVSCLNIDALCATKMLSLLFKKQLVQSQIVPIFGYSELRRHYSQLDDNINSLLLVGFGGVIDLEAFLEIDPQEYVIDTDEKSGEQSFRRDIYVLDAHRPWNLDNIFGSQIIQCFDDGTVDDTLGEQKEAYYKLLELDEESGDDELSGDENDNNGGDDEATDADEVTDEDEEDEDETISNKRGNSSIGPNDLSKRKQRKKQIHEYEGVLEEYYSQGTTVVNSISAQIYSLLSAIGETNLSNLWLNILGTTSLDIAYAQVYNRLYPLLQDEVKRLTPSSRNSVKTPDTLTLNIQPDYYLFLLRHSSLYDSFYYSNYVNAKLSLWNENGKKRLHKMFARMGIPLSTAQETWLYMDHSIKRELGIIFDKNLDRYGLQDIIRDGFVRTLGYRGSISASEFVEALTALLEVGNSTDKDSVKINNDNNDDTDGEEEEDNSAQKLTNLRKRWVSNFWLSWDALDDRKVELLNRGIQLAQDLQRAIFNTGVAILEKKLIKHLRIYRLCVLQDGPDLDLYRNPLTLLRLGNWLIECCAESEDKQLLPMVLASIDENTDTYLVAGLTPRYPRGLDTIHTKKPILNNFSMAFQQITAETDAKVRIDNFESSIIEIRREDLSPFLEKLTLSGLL

In this assay the parent is B1. As to conditions: with cdc45_yeast CDC45, Q08032.
For S306D;T310D, the “effect of a mutation on the interaction” value is on record as “disrupting interaction”.
